Source: publication PMC8651051

Key:
Settings in all cases: N = 1 experiment
CV503_664_GS = biological target: CV503_664_GS
CV503_993_EL = biological target: CV503_993_EL
CV664_993_GS = biological target: CV664_993_GS
CV993_521_GS = biological target: CV993_521_GS

Substance: full-length SARS-CoV-2 spike D614G, expressed on the cell surface (from UniProt P0DTC2) Alpha (B.1.1.7)
- percent of parent (CV503_664_GS): 236 % of D614G
- percent of parent (CV503_993_EL): 214 % of D614G
- percent of parent (CV664_993_GS): 257 % of D614G
- percent of parent (CV993_521_GS): 222 % of D614G

Substance: full-length SARS-CoV-2 spike D614G, expressed on the cell surface (from UniProt P0DTC2) Beta (B.1.351)
- percent of parent (CV503_664_GS): 202 % of D614G
- percent of parent (CV503_993_EL): 170 % of D614G
